Measurements reported in PMC3401287.

Target: HER2 (human (endogenous in BT-474, SK-BR-3, MDA-MB-361)) (UniProt P04626)
Assay: flow cytometry on cells; cell-based saturation assay: 3x10^5 BT-474 cells with increasing concentration of DyLight-488-labeled Affibody in PBS with 2% FBS, on ice, one hour; non-specific binding subtracted; three independent experiments

Kd: 3.66 nM
Substance: Z_(HER2)-GS-Cys labeled with DyLight-488 (designed binder)
